The supplement of paper PMC12042874
± gives the uncertainty stated by the source.

Assay: amyloid nucleation score (Sup35N fusion, yeast selection) (log enrichment); library NNK2; higher = more nucleation; inactive = no reads after selection
Outline: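 Nucleation score is defined as the DiMSum log enrichment of output over input reads, with centring on the mode score of non-aggregating sequences. A minimum of 100 input reads was required for each sequence. Reads came from Illumina sequencing of plasmid inserts from psi-negative yeast expressing Sup35N fused to peptides of 20 random codons, induced with 100 μM copper sulfate for 24 hours and grown 7 days at 30°C on medium lacking adenine and uracil.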
With LMLNWCTLGLVHC the amyloid nucleation score was 0.004 ± 0.61. Work on LMMSVWF yielded an amyloid nucleation score of 5.48 ± 0.063. Substance LMRLDLGT has an amyloid nucleation score of -0.518 ± 0.32. In the case of LMSGVLGRWLKKSSKFQESL, the amyloid nucleation score is reported as -0.653 ± 1.1. With LMSYVSSRNVSLQFIFVLPL the amyloid nucleation score was 5.55 ± 0.069. LMTSPSFIYVWSYTGFRMFG gave an amyloid nucleation score of 4.983 ± 0.042. With LMYKNCCWFLA the amyloid nucleation score was 8.256 ± 0.062. Substance LMYVCSLNNPLFMYANLL has an amyloid nucleation score of 5.54 ± 0.084. LNAWQKEINDALSPLSYPDS showed an amyloid nucleation score of 0.274 ± 1.1. LNFKWANCVFVDSNCQQ gave an amyloid nucleation score of 3.13 ± 0.17. With LNHCG the amyloid nucleation score was 0.738 ± 0.55. In the case of LNHIYYLAIQTTACILTMGE, the amyloid nucleation score is reported as -1.07 ± 0.63. LNKMECPCLFCVCVAFVIEW showed an amyloid nucleation score of 5.38 ± 0.067. Substance LNLGILAFSKVKIGVFQFYE has an amyloid nucleation score of 6.834 ± 0.037. With LNLSYIKAVTSRFAADYVL the amyloid nucleation score was 0.523 ± 0.18. Substance LNNRISNVAAGSSLRIYLMD has an amyloid nucleation score of 2.79 ± 0.062. With LNNSIYHLGKY the amyloid nucleation score was “inactive”. In the case of LNRYYSLPRLSVPSSVRSCG, the amyloid nucleation score is reported as -1.18 ± 0.44. In the case of LNSGCAVVLCADSRHSNEPD, the amyloid nucleation score is reported as -0.062 ± 0.65. In the case of LNSPLIPVRLMGVVRFQLLD, the amyloid nucleation score is reported as -0.459 ± 0.39. With LNSTGAQQFRTVEVYTSMQW the amyloid nucleation score was 2.81 ± 0.11. LNSYFTFVWTSVFGCVDPYE gave an amyloid nucleation score of 5.723 ± 0.035. Work on LNTIFTKIIGFSA yielded an amyloid nucleation score of -1.52 ± 0.49. LNVVARMFYLSLSSSGNWSG showed an amyloid nucleation score of -0.849 ± 0.64. LNWTTGFSDSAPVICPDTMH showed an amyloid nucleation score of -1.56 ± 1.1. With LNYDNFE the amyloid nucleation score was “inactive”. LNYLCVHTLIACVSWVPVSA showed an amyloid nucleation score of 2.36 ± 0.23. In the case of LNYRCAWWMLATMMLKRLSC, the amyloid nucleation score is reported as 2.15 ± 0.31. LPFFKIMVRSSYCCNYQG gave an amyloid nucleation score of 2.29 ± 0.065. In the case of LPGSYNYKGSHSQTNWFLDK, the amyloid nucleation score is reported as -2.09 ± 1. For LPHLCCIIY, the amyloid nucleation score was 2.56 ± 0.066. LPIPIKETHLSCWAVDVGFD showed an amyloid nucleation score of -0.052 ± 0.2. For LPIRWVVVGEGSGVGRVWTW, the amyloid nucleation score was 0.227 ± 0.3. LPLKNRVVDTCRKRFVGEVG gave an amyloid nucleation score of -0.19 ± 1. LPLYMTYACPVPTSIHRIIL showed an amyloid nucleation score of -0.06 ± 0.28. In the case of LPMLRHTYNCFSVACIGIFC, the amyloid nucleation score is reported as -0.204 ± 0.3. With LPTFSPQ the amyloid nucleation score was 3.77 ± 0.13. Work on LPYYKHCNRLTNVTCLYKRR yielded an amyloid nucleation score of 3.34 ± 0.15. With LQANWNDGPVGSSICAACSL the amyloid nucleation score was -0.746 ± 0.76. LQMSGTSR gave an amyloid nucleation score of 0.265 ± 1.1. Work on LQNFRCTGCVLFCMHICPAM yielded an amyloid nucleation score of 4.84 ± 0.075. For LQVAARHHL, the amyloid nucleation score was “inactive”. Substance LRESFKRWMLVVAATLYAFK has an amyloid nucleation score of 0.376 ± 0.48. LRFPRWSPADGDSILHTTSQ gave an amyloid nucleation score of 0.673 ± 0.66. For LRGHRPFLVY, the amyloid nucleation score was -0.02 ± 1.1. With LRGRRRTVLPANGWCSLTAL the amyloid nucleation score was 0.453 ± 0.28. LRIRYFSFDIIVLEGYIRSA showed an amyloid nucleation score of -0.205 ± 0.29. With LRLFFNYWSNWGATEKNYIL the amyloid nucleation score was -1.52 ± 1.1. For LRLLISV, the amyloid nucleation score was 0.306 ± 0.25. With LRLWHDYSFFLNKVSQVHSY the amyloid nucleation score was -1.12 ± 1.1. For LRMSVVQLSVRESLLDNHDY, the amyloid nucleation score was 1.78 ± 0.25. LRNMPRVQQVCPYFINVRGK gave an amyloid nucleation score of 2.25 ± 0.082. LRNRMAERDLYLYAICSAGL gave an amyloid nucleation score of 0.331 ± 0.55. For LRRASINCKMLGGDVGQVMW, the amyloid nucleation score was 0.404 ± 0.66. Work on LRRSTKSSCGVRCWVIEMGS yielded an amyloid nucleation score of 0.138 ± 1.1. With LRSEFRFIYLRLTWKVR the amyloid nucleation score was “inactive”. With LRSLGAGAIYMPALQCRSRS the amyloid nucleation score was 0.255 ± 0.5. For LSACIALASGYVGISGW, the amyloid nucleation score was “inactive”. LSAKSTCTAYNRAGSARTEY gave an amyloid nucleation score of -0.072 ± 1.1. LSALCES gave an amyloid nucleation score of 0.98 ± 0.53. Substance LSALCGIGCDCLPTLTKLIV has an amyloid nucleation score of -0.089 ± 0.25. For LSCCSLIPTHPRPRDNVNEC, the amyloid nucleation score was 0.717 ± 0.23. Work on LSCNMFDPVGQWCCGKKVGA yielded an amyloid nucleation score of 1.07 ± 0.42. LSCWAYHVSWGWWHYIFAW gave an amyloid nucleation score of 1.11 ± 0.38. For LSDIRWMSCGGVL, the amyloid nucleation score was -0.602 ± 1.1. LSFFMPDT showed an amyloid nucleation score of -1.53 ± 0.36. LSFISRRDNDGYMICEYSLP showed an amyloid nucleation score of 0.264 ± 0.65. For LSGFKYWLRWL, the amyloid nucleation score was “inactive”. Work on LSGFV yielded an amyloid nucleation score of -0.554 ± 0.64. In the case of LSGLRRPNRFLYT, the amyloid nucleation score is reported as -0.897 ± 0.43. In the case of LSGRHY, the amyloid nucleation score is reported as 0.33 ± 0.74. LSHKAEYLCVFSWACRIMGL gave an amyloid nucleation score of 0.155 ± 0.42. For LSHPVIGGETKFPDDRNSQF, the amyloid nucleation score was 0.119 ± 0.19. With LSHRNPASRNYRPWQLNC the amyloid nucleation score was 0.245 ± 0.29. For LSLVNGLRDVFTSGWALRCW, the amyloid nucleation score was 4.89 ± 0.05. Work on LSLYFFDL yielded an amyloid nucleation score of 1.06 ± 0.36. Substance LSMELNGYYILVCDLDFVTE has an amyloid nucleation score of 1.5 ± 0.16. Work on LSMELNVYVERWWFSKLDRG yielded an amyloid nucleation score of -1.26 ± 0.49. In the case of LSNLMRISMIFEYAAPLFRF, the amyloid nucleation score is reported as “inactive”. With LSPRSGNRTP the amyloid nucleation score was -0.436 ± 0.41. In the case of LSPVVRSMKDVLQCESVDDR, the amyloid nucleation score is reported as 0.191 ± 0.5. Substance LSRFFFNRAPRKVTGLSVRY has an amyloid nucleation score of 0.96 ± 0.21. Substance LSRSDAVRAFFRIMVLWKVV has an amyloid nucleation score of -0.32 ± 0.63. For LSRVSE, the amyloid nucleation score was -0.405 ± 0.39. Substance LSSKCYVA has an amyloid nucleation score of -0.874 ± 1. Substance LSVLTNDSGLFKFGFIRCVW has an amyloid nucleation score of -1.21 ± 0.75. For LSWAHVVICLIW, the amyloid nucleation score was “inactive”. Substance LSYLML has an amyloid nucleation score of -1.03 ± 0.78. With LSYNQD the amyloid nucleation score was -0.581 ± 0.64. With LSYNVLLGRIEIPWVSFSRM the amyloid nucleation score was 3.94 ± 0.068. In the case of LSYRVRCIRMNMLSSALGTM, the amyloid nucleation score is reported as “inactive”. LTDSKSALRLAMR gave an amyloid nucleation score of 4.48 ± 0.039. LTDVYMVI showed an amyloid nucleation score of -0.395 ± 0.76. For LTGALREFPIYSGANDIWWR, the amyloid nucleation score was -0.796 ± 0.44. In the case of LTIDTTFVITSRYTCQLWQR, the amyloid nucleation score is reported as 4.2 ± 0.056. Work on LTILFH yielded an amyloid nucleation score of 4.84 ± 0.078. LTLLFGRSVSEWVWNLMDRC showed an amyloid nucleation score of -0.461 ± 0.29. With LTPYEYCVYDCFLSLESVLF the amyloid nucleation score was “inactive”. In the case of LTRPCITV, the amyloid nucleation score is reported as 0.193 ± 0.55. LTSMEARLQMKVRDGFQNGE gave an amyloid nucleation score of 0.437 ± 0.49. Work on LTTGKLYFSLEMYT yielded an amyloid nucleation score of -0.653 ± 0.63. Substance LTTMFFIMCHEFNLLAVFNY has an amyloid nucleation score of 1.27 ± 0.26. Work on LTVRELLFTSRRHRARRHSC yielded an amyloid nucleation score of 1.81 ± 0.32. LTVVV gave an amyloid nucleation score of 0.709 ± 0.66. With LVAFLGQIEPSRTQRTLGSG the amyloid nucleation score was 0.001 ± 0.39. LVDFNVLYNAGIIRLHTERY showed an amyloid nucleation score of 8.048 ± 0.07. Substance LVDNLR has an amyloid nucleation score of -0.441 ± 1.1. Work on LVGDRNDVLPVFVRSRRRVP yielded an amyloid nucleation score of 0.53 ± 0.56. With LVGRRWVFTDCKGFRASVNF the amyloid nucleation score was “inactive”. LVGWSLHSITFPEWRGHNPK showed an amyloid nucleation score of -0.991 ± 1.1. Substance LVISLSISCAGKRVAQSHMG has an amyloid nucleation score of -0.951 ± 0.76. For LVITTMDDLKCDRAVVGPMW, the amyloid nucleation score was -0.174 ± 0.76. In the case of LVKTVDYAALPRICDVGRGQ, the amyloid nucleation score is reported as 3.96 ± 0.075. LVLFCAFRVTLGFSQTLNSM gave an amyloid nucleation score of -0.003 ± 0.8. For LVLRQLVR, the amyloid nucleation score was “inactive”. LVLWKLQVCSPLTVLRTPYR showed an amyloid nucleation score of 0.889 ± 0.28. LVMFKVTF showed an amyloid nucleation score of 6.432 ± 0.04. With LVMTHAMFVSLWCGRTVFLL the amyloid nucleation score was 0.014 ± 0.49. With LVNACFCACLRNNSFKCDYY the amyloid nucleation score was 6.966 ± 0.066. With LVPPVLGAHVSNKVDVILHA the amyloid nucleation score was -0.199 ± 1.1. In the case of LVSYNITFEYHNGKGCGEYG, the amyloid nucleation score is reported as 3.63 ± 0.12. For LVTSCLQVEW, the amyloid nucleation score was 0.284 ± 0.28. With LVVKGDLFAIYVCPCLCRGS the amyloid nucleation score was 9.397 ± 0.051. For LVVSI, the amyloid nucleation score was -0.876 ± 0.78. With LVVSIIRGYLFPCGDPIFLW the amyloid nucleation score was “inactive”. With LVWPTYVGDQAGSCVPGVFP the amyloid nucleation score was 4.51 ± 0.068. Substance LVYFKRRLPTRLIANRRMNG has an amyloid nucleation score of -0.845 ± 0.76.
